Laboratory results published in patent US20250115677A1, “Anti-CEA Antibody Drug Conjugates and Methods of Use” (BeiGene Switzerland GmbH, priority 2022, published 2025).

Experiments:
[1] = biological target: T1, human CEA on cells (MKN45, LOVO, NCI-H2122, LS174T, CT26/CEA) (human, UniProt P06731 35-685); assay: flow cytometry on MKN45 cells, BGA5384 premixed with 1.00 ug/ml recombinant soluble CEA (competitor), anti-huFc-APC
T1 construct: Full-length human CEA, endogenous on tumour cell lines or transduced; also called native CEA on living cells; huCEA surface protein
T1 sequence: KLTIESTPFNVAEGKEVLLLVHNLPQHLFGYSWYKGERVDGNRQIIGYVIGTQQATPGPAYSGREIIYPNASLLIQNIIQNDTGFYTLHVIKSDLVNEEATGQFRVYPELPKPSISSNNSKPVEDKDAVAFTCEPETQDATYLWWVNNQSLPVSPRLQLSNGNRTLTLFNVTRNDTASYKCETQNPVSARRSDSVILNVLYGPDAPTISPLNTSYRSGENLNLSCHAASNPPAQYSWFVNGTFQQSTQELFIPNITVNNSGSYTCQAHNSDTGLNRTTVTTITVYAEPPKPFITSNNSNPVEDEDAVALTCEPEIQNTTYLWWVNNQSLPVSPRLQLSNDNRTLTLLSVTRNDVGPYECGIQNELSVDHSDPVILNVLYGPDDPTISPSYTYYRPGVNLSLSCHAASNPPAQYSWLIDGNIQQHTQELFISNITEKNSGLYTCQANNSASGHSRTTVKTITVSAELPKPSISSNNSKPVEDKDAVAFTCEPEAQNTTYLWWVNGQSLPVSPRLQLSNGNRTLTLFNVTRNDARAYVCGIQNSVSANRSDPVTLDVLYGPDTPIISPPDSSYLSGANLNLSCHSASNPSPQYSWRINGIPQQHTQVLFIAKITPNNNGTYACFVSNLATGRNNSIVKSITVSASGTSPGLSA
Protocol: The mixtures were then incubated with 2×10^5 CEA-expressing cells, such as MKN45 cells, for 30 minutes at 4° C. The cells were stained with secondary antibody anti-huFc-APC (Cat. No. 409320, BioLegend, USA) and analyzed by flow cytometry.

[2] = biological target: T2, CEACAM7 on transiently transfected HEK293 cells (Homo sapiens (Human), UniProt Q14002 36-242); assay: flow cytometry on transiently transfected HEK293 cells
T2 sequence: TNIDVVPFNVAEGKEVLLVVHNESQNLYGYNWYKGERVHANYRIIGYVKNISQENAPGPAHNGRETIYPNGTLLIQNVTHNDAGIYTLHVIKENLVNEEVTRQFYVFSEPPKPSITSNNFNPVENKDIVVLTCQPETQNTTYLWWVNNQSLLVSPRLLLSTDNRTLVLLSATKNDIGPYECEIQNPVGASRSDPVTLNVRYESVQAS
Protocol: (§1) Cell fluorescence was quantified using a flow cytometer (Guava easyCyte™ 8HT, Merck-Millipore, USA). For antigen ELISA, CEACAM1(SEQ ID NO:64) (Cat. No. 10822-H08H, Sino Biological, China), CHIM (SEQ ID NO:63), CEA (SEQ ID NO:55) or CEACAM6 (SEQ ID NO:57) were coated in 96-well plates at a concentration of 10 μg/ml overnight at 4° C.

[3] = biological target: T3, CEACAM8 on transiently transfected HEK293 cells (Homo sapiens (Human), UniProt P31997 35-320); assay: as above
T3 sequence: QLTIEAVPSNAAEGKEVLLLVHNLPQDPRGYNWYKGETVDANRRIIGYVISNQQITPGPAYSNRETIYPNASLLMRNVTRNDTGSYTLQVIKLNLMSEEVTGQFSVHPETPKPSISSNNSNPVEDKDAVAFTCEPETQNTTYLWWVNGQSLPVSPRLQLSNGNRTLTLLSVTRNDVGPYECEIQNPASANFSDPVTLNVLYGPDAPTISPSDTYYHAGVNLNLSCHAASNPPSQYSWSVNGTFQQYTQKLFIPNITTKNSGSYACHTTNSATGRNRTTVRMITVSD
Protocol: as §1

[4] = biological target: T4, CEACAM3 on transiently transfected HEK293 cells (Homo sapiens (Human), UniProt P40198 35-252); assay: as above
T4 sequence: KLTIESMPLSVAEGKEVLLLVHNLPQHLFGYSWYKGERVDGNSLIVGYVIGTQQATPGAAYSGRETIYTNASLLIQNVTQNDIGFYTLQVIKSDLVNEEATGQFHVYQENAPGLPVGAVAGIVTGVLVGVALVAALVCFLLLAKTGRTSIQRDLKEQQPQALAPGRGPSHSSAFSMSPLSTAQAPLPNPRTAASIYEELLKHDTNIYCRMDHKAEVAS
Protocol: as §1

[5] = biological target: T5, cynoCEA (Cat.:CE5-C52H5, Acrobiosystem) (cyno); assay: SPR (BIAcore T-200); antibody captured on anti-human IgG chip, antigen flowed (1.37-2150 nM)
T5 chain: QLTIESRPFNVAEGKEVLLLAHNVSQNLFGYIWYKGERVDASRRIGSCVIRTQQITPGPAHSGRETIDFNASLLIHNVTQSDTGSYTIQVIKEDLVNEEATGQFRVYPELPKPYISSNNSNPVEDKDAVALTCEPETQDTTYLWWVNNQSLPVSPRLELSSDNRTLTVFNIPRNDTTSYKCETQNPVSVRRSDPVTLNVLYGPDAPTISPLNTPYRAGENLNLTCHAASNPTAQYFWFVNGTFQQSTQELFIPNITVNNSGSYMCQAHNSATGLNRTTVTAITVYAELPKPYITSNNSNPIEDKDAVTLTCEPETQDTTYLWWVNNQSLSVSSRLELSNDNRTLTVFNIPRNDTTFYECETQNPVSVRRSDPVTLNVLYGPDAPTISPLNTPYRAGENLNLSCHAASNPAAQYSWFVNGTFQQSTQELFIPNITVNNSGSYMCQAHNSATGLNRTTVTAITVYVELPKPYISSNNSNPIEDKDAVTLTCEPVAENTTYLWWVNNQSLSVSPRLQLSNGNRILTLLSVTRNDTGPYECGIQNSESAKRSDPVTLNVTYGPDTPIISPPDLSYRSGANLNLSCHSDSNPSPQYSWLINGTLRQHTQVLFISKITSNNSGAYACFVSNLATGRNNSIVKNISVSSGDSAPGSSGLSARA

EC50 (read off the curve) [1]: ~2 µg/mL
binding result [2]: no binding (tested: 2 µg/ml)
binding result [3]: no binding (tested: 2 µg/ml)
binding result [4]: no binding (tested: 2 µg/ml)
Kd [5]: 19.9 nM
B1: BGA5384 (antibody, human IgG1, kappa, V domains shown)
VH: QVQLVQSGAEVKKPGASVKVSCKASGYIFTSYYLHWVRQAPGQGLEWIGYINPQTGKTSYAQKFQGRVTMTRDTSTSTVYMELSSLRSEDTAVYYCAREYGNYNYPLDYWGQGTLVTVSS
VL: DIQMTQSPSSLSASVGDRVTITCRASENQYGYLAWYQQKPGKVPKLLIYNYKNLVEGVPSRFSGSGSGTDFTLTISSLQPEDVATYYCQHHLGTPYTFGQGTKVEIKR
notes: BGA6710 with Y57K in VH; human IgG1 format; also called BGA7592-1K
